# Experimental data: PMC5548138 (Neuron, 2017)
# B1: HA-tagged α2δ-3 (mouse) (natural protein, UniProt Q9Z1L5 34-1091, looked up)
# chain: EQQIPLSVVKLWASAFGGEIKSIAAKYSGSQLLQKKYKEYEKDVAIEEIDGLQLVKKLAKIMEEMFHKKSEAVRRLVEAAEEAHLKHEFDADLQYEYFNAVLINERDKDGNFLELGKEFILAPNDHFNNLPVNISLSDVQVPTNMYNKDPAIVNGVYWSESLNKVFVDNFDRDPSLIWQYFGSAKGFFRQYPGIKWEPDENGVIAFDCRNRKWYIQAATSPKDVVILVDVSGSMKGLRLTIAKQTVSSILDTLGDDDFFNIITYNEELHYVEPCLNGTLVQADRTNKEHFREHLDKLFAKGIGMLDIALNEAFNILSDFNHTGQGSICSQAIMLITDGAVDTYDTIFAKYNWPDRKVRIFTYLIGREAAFADNLKWMACANKGFFTQISTLADVQENVMEYLHVLSRPKVIDQEHDVVWTEAYIDSTLPQAQKLADDQGLVLMTTVAMPVFSKQNETRSKGILLGVVGTDVPVKELLKTIPKYKLGIHGYAFAITNNGYILTHPELRPLYEEGKKRRKPNYSSVDLSEVEWEDRDDVLRNAMVNRKTGKFSMEVKKTVDKGKRVLVMTNDYYYTDIKGTPFSLGVALSRGHGKYFFRGNVTIEEGLHDLEHPDVSLADEWSYCNTDLHPEHRHLSQLEAIKLYLKGKEPLLQCDKELIQEVLFDAVVSAPIEAYWTSLALNKSENSDKGVEVAFLGTRTGLSRINLFVGAEQLTNQDFLKAGDKENIFNADHFPLWYRRAAEQIAGSFVYSIPFSTGTVNKSNVVTASTSIQLLDERKSPVVAAVGIQMKLEFFQRKFWTASRQCASLDGKCSISCDDETVNCYLIDNNGFILVSEDYTQTGDFFGEVEGAVMNKLLTMGSFKRITLYDYQAMCRANKESSDSAHGLLDPYKAFLSAAKWIMTELVLFLVEFNLCSWWHSDMTAKAQKLKQTLEPCDTEYPAFVSERTIKETTGNIACEDCSKSFVIQQIPSSNLFMVVVDSSCLCESVAPITMAPIEIRYNESLKCERLKAQKIRRRPESCHGFHPEENARECGGASSLQAQAALLLLPLVSSLFSR
# Biological target: recombinant bovine NX-1α protein (btNX-1α), ectodomain L1-L6 his6 (bovine, UniProt Q28146 31-1454)
# Sequence (Q28146 31-1454): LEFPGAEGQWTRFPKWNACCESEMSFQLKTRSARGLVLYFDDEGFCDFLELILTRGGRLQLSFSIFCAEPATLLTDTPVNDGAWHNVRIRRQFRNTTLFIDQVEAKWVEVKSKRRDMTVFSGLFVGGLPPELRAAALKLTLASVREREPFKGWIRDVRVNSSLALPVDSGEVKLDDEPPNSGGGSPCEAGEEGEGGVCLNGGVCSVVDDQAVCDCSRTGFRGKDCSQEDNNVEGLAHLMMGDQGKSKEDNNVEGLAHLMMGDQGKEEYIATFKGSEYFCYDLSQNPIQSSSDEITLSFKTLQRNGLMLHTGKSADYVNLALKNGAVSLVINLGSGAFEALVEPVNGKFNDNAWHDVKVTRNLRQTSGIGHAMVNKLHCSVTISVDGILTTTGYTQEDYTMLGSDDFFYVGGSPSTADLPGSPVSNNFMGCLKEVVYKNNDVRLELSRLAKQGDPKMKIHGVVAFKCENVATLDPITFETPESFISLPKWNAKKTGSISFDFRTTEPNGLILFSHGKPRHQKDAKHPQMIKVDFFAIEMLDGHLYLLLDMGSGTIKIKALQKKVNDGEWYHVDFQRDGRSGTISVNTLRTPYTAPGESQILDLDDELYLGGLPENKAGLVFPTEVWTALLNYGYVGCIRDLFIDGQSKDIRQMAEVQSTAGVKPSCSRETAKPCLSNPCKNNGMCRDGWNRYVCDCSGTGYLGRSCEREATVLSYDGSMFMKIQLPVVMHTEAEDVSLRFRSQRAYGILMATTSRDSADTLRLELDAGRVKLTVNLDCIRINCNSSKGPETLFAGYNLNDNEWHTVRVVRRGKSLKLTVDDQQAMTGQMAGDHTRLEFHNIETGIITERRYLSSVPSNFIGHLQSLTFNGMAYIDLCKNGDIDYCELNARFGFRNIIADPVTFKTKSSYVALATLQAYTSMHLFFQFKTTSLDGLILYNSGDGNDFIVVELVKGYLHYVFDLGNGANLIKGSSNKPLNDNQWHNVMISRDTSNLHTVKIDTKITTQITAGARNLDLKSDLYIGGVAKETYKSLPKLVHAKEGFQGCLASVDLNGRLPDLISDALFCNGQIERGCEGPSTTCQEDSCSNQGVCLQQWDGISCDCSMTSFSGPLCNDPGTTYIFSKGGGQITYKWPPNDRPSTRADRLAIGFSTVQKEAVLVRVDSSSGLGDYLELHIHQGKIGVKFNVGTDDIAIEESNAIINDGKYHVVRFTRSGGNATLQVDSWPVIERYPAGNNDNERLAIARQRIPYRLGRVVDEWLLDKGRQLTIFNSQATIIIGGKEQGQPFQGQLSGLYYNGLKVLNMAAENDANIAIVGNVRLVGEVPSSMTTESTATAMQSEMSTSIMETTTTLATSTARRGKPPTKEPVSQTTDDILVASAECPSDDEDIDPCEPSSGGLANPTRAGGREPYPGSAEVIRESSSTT
# Experiment: co-IP
binder,measurement,value
B1,Kd,~0.04 µM
